# Assay results reported in PMC4220489 (Nature Communications, 2014).
# T1: IL-12 subunit beta (p40), as in the recombinant human IL-23 of the crystal structure (human, UniProt P29460 23-328, C-mannosylated Trp319; N-linked glycans limited by kifunensine and trimmed with EndoH)
# T1 construct: signal peptide in the construct; IL-12 subunit beta (p40), human, residues 1-328, cDNA as NCBI NM_002187.2 (silent codon change at Asn248); The p40 chain of m3, written alone for the pairs of the crystal structure; also called IL-23 p40; source: HEK-293T, co-transfected with p19-His, purified as IL-23 (Talon IMAC, SEC)
# T1 sequence (looked up): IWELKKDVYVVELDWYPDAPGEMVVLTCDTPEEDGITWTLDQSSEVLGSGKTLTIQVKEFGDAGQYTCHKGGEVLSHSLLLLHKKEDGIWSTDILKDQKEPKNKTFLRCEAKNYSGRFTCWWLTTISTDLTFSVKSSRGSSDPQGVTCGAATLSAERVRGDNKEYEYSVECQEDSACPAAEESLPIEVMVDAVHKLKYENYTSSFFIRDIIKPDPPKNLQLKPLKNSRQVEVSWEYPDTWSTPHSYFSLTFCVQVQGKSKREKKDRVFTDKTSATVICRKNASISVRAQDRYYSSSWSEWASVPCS
# T2: recombinant human IL-23 (p19-His co-expressed with p40 in HEK-293T) (human, UniProt Q9NPF7 20-189; P29460 23-328, N-linked glycans limited by kifunensine and trimmed with EndoH | C-mannosylated Trp319; N-linked glycans limited by kifunensine and trimmed with EndoH)
# T2 chain 1: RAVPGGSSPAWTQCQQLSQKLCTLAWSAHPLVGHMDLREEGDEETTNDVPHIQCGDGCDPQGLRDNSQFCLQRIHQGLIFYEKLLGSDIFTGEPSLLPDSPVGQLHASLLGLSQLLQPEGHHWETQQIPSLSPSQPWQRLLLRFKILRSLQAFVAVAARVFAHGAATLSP
# T2 chain 2: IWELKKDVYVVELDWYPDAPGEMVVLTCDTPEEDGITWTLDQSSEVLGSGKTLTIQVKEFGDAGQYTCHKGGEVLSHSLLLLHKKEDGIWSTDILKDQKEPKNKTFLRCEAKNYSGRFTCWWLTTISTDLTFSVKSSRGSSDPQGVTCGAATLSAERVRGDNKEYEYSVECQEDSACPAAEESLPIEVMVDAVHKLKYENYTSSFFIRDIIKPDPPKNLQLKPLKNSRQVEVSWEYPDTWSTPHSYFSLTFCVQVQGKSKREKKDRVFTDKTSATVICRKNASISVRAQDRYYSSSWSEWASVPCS
# Key:
# [1] = biological target: T1, IL-12 subunit beta (p40), as in the …; assay: crystal structure; IL-23:MA12_B2fC complex, two crystal forms (PEG 3,350 with Na2SO4 or potassium formate), molecular replacement with PDB 3DUH; settings: both partners purified
# [2] = biological target: T2, recombinant human IL-23 (p19-His …); assay: SPR
# [3] = biological target: recombinant human IL-23 (p19-His co-expressed with p40 in HEK-293T) (human) (UniProt Q9NPF7); assay: ITC; VP-ITC, 30 °C, 20 mM Hepes, 150 mM NaCl, pH 7.4; IL-23 4.9 μM in the cell, MA12 53.2 μM in the syringe; one binding site model; apparent
# [4] = biological target: T2, recombinant human IL-23 (p19-His …); assay: SPR
Binder,binding result [1],Kd [2],Kd [3],stoichiometry N [3],koff [4]
"IL-23 subunit alpha (p19), as in the recombinant human IL-23 of the crystal structure (natural protein, UniProt Q9NPF7 20-189, looked up, N-linked glycans limited by kifunensine and trimmed with EndoH, signal peptide in the construct; IL-23 subunit alpha (p19), human, residues 1-189, cDNA as NCBI NM_016584.2; residue numbers as in UniProt; The p19 chain of m3, written alone for the pairs of the crystal structure; also called IL-23 p19; source: HEK-293T, co-transfected with p40, purified as IL-23 (Talon IMAC, SEC)) RAVPGGSSPAWTQCQQLSQKLCTLAWSAHPLVGHMDLREEGDEETTNDVPHIQCGDGCDPQGLRDNSQFCLQRIHQGLIFYEKLLGSDIFTGEPSLLPDSPVGQLHASLLGLSQLLQPEGHHWETQQIPSLSPSQPWQRLLLRFKILRSLQAFVAVAARVFAHGAATLSP",binds,–,–,–,–
"MA12_B2fC Alphabody (His-tag removed, cysteine blocked) (designed binder, free cysteine blocked with iodoacetamide) SIQEIQKEIAQIQAVIAGIQKYIYTMTGGSGGGSGGGSGGGSGMSIEEIQKQIAAIQCQIAAIQKQIYAMTGGSGGGSGGGSGGGSGMSIEEIQKQIAAIQEQILAIYKQIMAMVT",–,0.463 nM,0.35 nM,1,0.000122 s⁻¹
